Columns and labels:
[1] = tested on: Vero cells
[2] = molecular target: HB-EGF (Homo sapiens, UniProt Q99075); assay: Inhibition of binding of 125I-labeled diphtheria toxin to HB-EGF
Sequence of HB-EGF (Q99075 63-148): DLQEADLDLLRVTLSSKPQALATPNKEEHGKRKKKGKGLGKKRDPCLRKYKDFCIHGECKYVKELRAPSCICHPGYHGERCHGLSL

## GST-DT
[1]
  toxicity of diphtheria toxin: do not have the toxicity of diphtheria toxin substantially
[2]
  activity to inhibit the binding of HB-EGF to EGFR: inhibit the binding of HB-EGF to EGFR
  inhibition of the binding of 125I-labeled diphtheria toxin to HB-EGF: in a dose dependent manner

Source: patent US8507443B2, “Anticancer agent” (The Research Foundation for Microbial Diseases of Osaka …, priority 2005, dated 2013)
